Experimental data published in paper PMC3121797.
Several values for one entry are separate records, joined by “and”; a condition that tells them apart may be missing. Equal entries are not always repeated.

Target: unliganded V1/V2 loop-deleted envelope glycoproteins
Test: ELISA

C34-Ig fusion protein (from UniProt P04578 628-661) (Fc fusion)
C34-Ig binding without sCD4 as percent of that with sCD4: 20% and 45%
